Reference: patent publication US8975044B2, “Polynucleotides encoding for frizzled-binding agents and uses thereof” (OncoMed Pharmaceuticals, Inc., priority 2008, dated 2015)
Blank lines part the entries; values can stand above or below the compound they belong to.

What was measured:
FZD7 [1] = biological target: T1, FZD7 (Homo sapiens, UniProt O75084); experiment: FACS binding to FZD-transfected HEK293 cells; design: plasmid DNA expressing full-length FZD1, 2, 5, 7 or 8; expressed in transfected cells; host or cells: HEK293; conditions: FACS MFI dose-response, full-length FZD in HEK293, 20 μg/ml 4-fold dilutions
Experimental: (§1) To measure antibody binding to FZD by flow cytometry HEK293 cells were co-transfected with FZD expression vectors and the transfection marker GFP. Twenty-four to forty-eight hours post-transfection, cells were collected in suspension and incubated on ice with anti-FZD antibodies (10 μg/ml unless otherwise indicated) or control IgG to detect background antibody binding. The cells were washed and primary antibodies detected with Fc domain-specific secondary antibodies conjugated to a fluorescent chromophore (e.g. phycoerythrin conjugated anti-human IgG). Labeled cells were then analyzed by flow cytometry to identify anti-FZD antibodies that specifically recognize cell surface expression of FZD protein. Monoclonal antibodies 18R5 and 18R8 recognized FZD on transfected cells. As shown in FIG. 1 and FIG. 2, both 18R8 and 18R5 bind to multiple FZD including FZD1, FZD2, FZD5, FZD7, and FZD8. […]
(§2) HEK293 cells were co-transfected with a plasmid DNA expressing full-length FZD1, 2, 5, 7 or 8 along with another plasmid expressing the reporter gene GFP used as a transfection marker. […] The cells were washed and bound anti-Fzd antibodies were detected with a secondary anti-human antibody conjugated to a fluorescent chromophore. Labeled cells were then detected and counted by FACS. The FACS data generated were expressed in Mean Fluorescence Intensity (MFI) units. […]

FZD7 [2] = biological target: T1, FZD7; experiment: Biacore affinity to recombinant Fzd Fc protein; type: binding; design: Fc (C); conditions: IgG antibody; Fzd Fc immobilized on CM5 Biacore chip
Experimental: The KDs of 18R8 and 18R5 antibodies were determined using the Biacore 2000 system from Biacore Lifescience (GE Healthcare). Specifically, purified anti-Fzd7 antibodies were serially diluted in 2-fold increments from 100 to 0.78 nM in HBS-P (0.01 M HEPES pH 7.4, 0.15 M NaCl, 0.005% v/v Surfactant P20). Each dilution was tested against recombinant Fzd Fc proteins immobilized onto a CM5 Biacore chip. The association and dissociation rates were measured and KD values determined using the Biaevaluation software program (Table 5, below).

FZD2 = biological target: T2, FZD2 (Homo sapiens, UniProt Q14332); experiment: FACS binding to FZD-transfected HEK293 cells; conditions: FACS MFI dose-response, full-length FZD in HEK293, 20 μg/ml 4-fold dilutions
T2 construct: plasmid DNA expressing full-length FZD1, 2, 5, 7 or 8; expressed in transfected cells; host or cells: HEK293
T2 sequence (Q14332 24-565): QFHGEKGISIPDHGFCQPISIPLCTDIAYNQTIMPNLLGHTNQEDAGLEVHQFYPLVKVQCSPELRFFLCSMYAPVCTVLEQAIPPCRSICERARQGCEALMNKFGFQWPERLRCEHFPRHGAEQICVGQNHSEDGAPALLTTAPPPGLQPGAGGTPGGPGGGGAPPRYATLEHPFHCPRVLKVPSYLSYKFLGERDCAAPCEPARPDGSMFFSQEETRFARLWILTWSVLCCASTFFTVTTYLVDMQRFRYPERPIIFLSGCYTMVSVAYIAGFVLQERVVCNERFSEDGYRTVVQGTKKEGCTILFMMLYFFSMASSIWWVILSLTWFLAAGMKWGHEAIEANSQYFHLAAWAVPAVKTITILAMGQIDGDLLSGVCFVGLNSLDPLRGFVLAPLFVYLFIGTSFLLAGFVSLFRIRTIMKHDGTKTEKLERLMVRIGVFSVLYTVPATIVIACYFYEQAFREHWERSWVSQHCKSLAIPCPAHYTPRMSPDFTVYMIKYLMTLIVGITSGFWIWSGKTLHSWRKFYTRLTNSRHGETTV
Experimental: as §1, §2

FZD1 = biological target: T3, FZD1 (Homo sapiens, UniProt Q9UP38); experiment: FACS binding to FZD-transfected HEK293 cells; conditions: FACS MFI dose-response, full-length FZD in HEK293, 20 μg/ml 4-fold dilutions
T3 construct: plasmid DNA expressing full-length FZD1, 2, 5, 7 or 8; expressed in transfected cells; host or cells: HEK293
T3 sequence (Q9UP38 70-647): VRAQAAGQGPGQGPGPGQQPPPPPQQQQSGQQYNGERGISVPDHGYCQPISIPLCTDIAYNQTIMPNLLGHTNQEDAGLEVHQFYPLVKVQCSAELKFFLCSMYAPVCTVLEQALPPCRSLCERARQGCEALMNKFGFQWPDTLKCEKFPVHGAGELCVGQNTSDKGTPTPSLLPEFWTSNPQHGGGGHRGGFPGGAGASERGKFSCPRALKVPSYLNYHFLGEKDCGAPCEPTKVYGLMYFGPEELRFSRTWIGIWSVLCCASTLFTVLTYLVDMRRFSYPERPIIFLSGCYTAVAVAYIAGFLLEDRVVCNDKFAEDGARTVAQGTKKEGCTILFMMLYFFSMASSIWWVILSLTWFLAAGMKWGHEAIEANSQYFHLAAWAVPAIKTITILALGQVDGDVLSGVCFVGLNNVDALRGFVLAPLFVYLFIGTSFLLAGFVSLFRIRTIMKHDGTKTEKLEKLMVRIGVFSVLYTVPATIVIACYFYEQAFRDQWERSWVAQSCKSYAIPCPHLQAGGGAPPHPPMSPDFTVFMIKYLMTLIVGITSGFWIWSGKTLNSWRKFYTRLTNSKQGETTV
Experimental: as §1, §2

OMP-C28 tumors = experiment: Flow cytometry of ESA and CD44 on cells of treated OMP-C28 tumors; type: in vivo, NOD/SCID mice; conditions: tumors harvested day 48; control antibody 64%
Experimental: Control and treated tumors from the OMP-C28 xenograft study described above (Example 7) were harvested at the end of the study (day 48). The tumors were processed and dissociated into single cells. Tumor cells were then incubated with biotinylated mouse antibodies (α-mouse CD45-biotin 1:200 dilution and rat α-mouse H2 Kd-biotin 1:100 dilution, BioLegend, San Diego, Calif.) on ice for 30 min followed by addition of streptavidin-labeled magnetic beads (Invitrogen, Carlsbad, Calif.) to remove mouse cells with the aid of a magnet.
For analysis of cell surface markers, the single tumor cell suspension was stained with anti-ESA (Biomeda) and anti-CD44 (BD Biosciences) antibodies which were directly conjugated to fluorochromes. Dead cells were excluded by using the viability dye DAPI. Flow cytometry was performed using a FACS Aria (Becton Dickinson). Side scatter and forward scatter profiles were used to eliminate cell clumps.

OMP-Pn4 tumors = experiment: Limiting dilution assay of cancer stem cell frequency in treated OMP-Pn4 tumors; type: in vivo, NOD/SCID mice; conditions: tumors after 41 days treatment; 30-810 cells re-injected, 75 days; L-Calc
Experimental: Control and treated tumors from the OMP-Pn4 xenograft study described above (Example 7) were harvested at the end of 41 days treatment. The tumors were processed and dissociated into single cells. Tumor cells were then incubated with biotinylated mouse antibodies (α-mouse CD45-biotin 1:200 dilution and rat α-mouse H2 Kd-biotin 1:100 dilution, BioLegend, San Diego, Calif.) on ice for 30 min followed by addition of streptavidin-labeled magnetic beads (Invitrogen, Carlsbad, Calif.) to remove mouse cells. The remaining human cells in the suspension were collected, counted and diluted to appropriate cell doses (30, 90, 270 and 810 cells), mixed in the mixture of 1:1 (v/v) FACS buffer and Matrigel and injected subcutaneously in NOD/SCID mice (10 mice per cell dose per treatment group). Each dot in FIG. 40 represents the tumor volume of an individual mouse. The percentage of mice with detectable tumors was determined in all groups injected with anti-FZD antibody treated tumor cells and compared to the percentage of mice with detectable tumors in the controls. For example, the number of mice injected with 810 control-treated tumor cells that have detectable tumors was determined and compared to the number of mice injected with 810 FZD-antibody treated tumor cells that have detectable tumors. […]

EC50 (FZD7 [1]): 0.58 nM
Kd (FZD7 [2]): 1.8 nM
EC50 (FZD2): 0.62 nM
EC50 (FZD1): 0.41 nM
Compound: 18R5: human anti-FZD antibody; VH SEQ ID NO:10 (as 18R8), VL SEQ ID NO:14; binds FZD1, 2, 5, 7, 8

Compound: CCc1c2c(nc3ccc(OC(=O)N4CCC(N5CCCCC5)CC4)cc13)-c1cc3c(c(=O)n1C2)COC(=O)[C@]3(O)CC [irinotecan, reference compound]
bulk tumor population expressing both ESA and CD44 at high levels (double positive) (OMP-C28 tumors): 55%

Compound: Nc1ccn([C@@H]2O[C@H](CO)[C@@H](O)C2(F)F)c(=O)n1 [gemcitabine, reference compound]
cancer stem cell frequency (OMP-Pn4 tumors): had no effect
